Data from patent US20120082680A1 (Merck Sharp & Dohme, published 2012).
Where two headings read alike, the source gives them in different places. Values belong to the binder of their own block, whether it stands above or below them.

Assays:
Experiment in all cases: cell-based or functional assay
[1] = molecular target: T1, V5-, His-tagged recombinant human PCSK9 protein (human, UniProt Q8NBP7 31-692)
[2] = molecular target: T1, V5-, His-tagged recombinant human PCSK9 …; remark: listed apart in the source
[3] = molecular target: T1, V5-, His-tagged recombinant human PCSK9 …; remark: listed apart in the source
[4] = molecular target: T1, V5-, His-tagged recombinant human PCSK9 …; remark: listed apart in the source
[5] = molecular target: T1, V5-, His-tagged recombinant human PCSK9 …; remark: listed apart in the source

T1 sequence (Q8NBP7 31-692 limits assumed): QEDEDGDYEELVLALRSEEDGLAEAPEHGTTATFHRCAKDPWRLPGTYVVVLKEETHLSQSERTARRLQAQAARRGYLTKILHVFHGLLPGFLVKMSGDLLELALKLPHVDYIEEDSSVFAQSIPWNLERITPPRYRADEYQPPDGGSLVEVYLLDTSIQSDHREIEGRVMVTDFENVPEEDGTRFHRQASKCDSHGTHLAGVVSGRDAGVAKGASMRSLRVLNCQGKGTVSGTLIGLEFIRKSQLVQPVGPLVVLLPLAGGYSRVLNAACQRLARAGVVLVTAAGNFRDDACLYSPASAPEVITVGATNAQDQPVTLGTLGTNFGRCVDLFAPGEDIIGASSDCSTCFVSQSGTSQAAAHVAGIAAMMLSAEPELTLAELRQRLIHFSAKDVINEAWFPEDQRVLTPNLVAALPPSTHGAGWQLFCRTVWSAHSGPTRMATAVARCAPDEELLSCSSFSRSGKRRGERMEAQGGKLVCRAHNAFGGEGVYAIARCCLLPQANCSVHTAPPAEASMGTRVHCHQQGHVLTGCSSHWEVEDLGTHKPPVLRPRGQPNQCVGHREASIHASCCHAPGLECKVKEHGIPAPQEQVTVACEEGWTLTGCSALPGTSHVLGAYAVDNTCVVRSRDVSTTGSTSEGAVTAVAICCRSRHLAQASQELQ

IC50 for reversing the PCSK9-dependent loss of cellular diI-LDL uptake (Exopolar assay; Fab titrated against PCSK9 fixed at 25 µg/ml) [1]: 127 nM
B1: 3CX4B08 (Fab, V domains shown)
VH: QVQLVESGGGLVQPGGSLRLSCAASGFTFSNYTMNWVRQAPGKGLEWVSFISSSSSETYYADSVKGRFTISRDNSKNTLYLQMNSLRAEDTAVYYCARGYGDMVDLWGQGTLVTVSS
VL: DIELTQPPSVSVAPGQTARISCSGDSIPTYYVAWYQQKPGQAPVLVIYSDTDRPSGIPERFSGSNSGNTATLTISGTQAEDEADYYCQSFDNHGYHVFGGGTKLTVLG

IC50 for reversing the PCSK9-dependent loss of cellular diI-LDL uptake (Exopolar assay; Fab titrated against PCSK9 fixed at 25 µg/ml) [2]: 1250 nM
B2: 3BX5C01 (Fab, V domains shown)
VH: QVQLVQSGAEVKKPGESLKISCKGSGYSFTSYGISWVRQMPGKGLEWMGMIDPSDSFTTYSPSFQGQVTISADKSISTAYLQWSSLKASDTAMYYCARGYYFTYALQPMDHWGQGTLVTVSS
VL: DIELTQPPSVSVAPGQTARISCSGDNLRDYIVHWYQQKPGQAPVLVIYDDSNRPSGIPERFSGSNSGNTATLTISGTQAEDEADYYCGFDNGGDIDVFGGGTKLTVLG

IC50 for reversing the PCSK9-dependent loss of cellular diI-LDL uptake (Exopolar assay; Fab titrated against PCSK9 fixed at 25 µg/ml) [3]: 267 nM
B3: 1CX1G08 (Fab, V domains shown)
VH: QVQLVESGGGLVQPGGSLRLSCAASGFTFSDYWVSWVRQAPGKGLEWVSFISYDGSSTYYADSVKGRFTISRDNSKNTLYLQMNSLRAEDTAVYYCARTYFEGVDVWGQGTLVTVSS
VL: DIELTQPPSVSVAPGQTARISCSGDNIGTYYVHWYQQKPGQAPVLVIYDDSNRPSGIPERFSGSNSGNTATLTISGTQAEDEADYYCGTWDNTSFNLVFGGGTKLTVLG

IC50 for reversing the PCSK9-dependent loss of cellular diI-LDL uptake (Exopolar assay; Fab titrated against PCSK9 fixed at 25 µg/ml) [4]: 107 nM
B4: 3CX2A06 (Fab, V domains shown)
VH: QVQLVQSGAEVKKPGESLKISCKGSGYSFSNFWIAWVRQMPGKGLEWMGIIDPSDSWTRYSPSFQGQVTISADKSISTAYLQWSSLKASDTAMYYCARGDGQDFDNWGQGTLVTVSS
VL: DIQMTQSPSSLSASVGDRVTITCRASQNINSYLNWYQQKPGKAPKLLIYAASSLQSGVPSRFSGSGSGTDFTLTISSLQPEDFAVYYCLQNYDLPNTFGQGTKVEIKR

IC50 for reversing the PCSK9-dependent loss of cellular diI-LDL uptake (Exopolar assay; Fab titrated against PCSK9 fixed at 25 µg/ml) [5]: 269 nM
B5: 3CX3D02 (Fab, V domains shown)
VH: QVQLVQSGAEVKKPGESLKISCKGSGYSFTNSWIGWVRQMPGKGLEWMGIIYPSDSYTIYSPSFQGQVTISADKSISTAYLQWSSLKASDTAMYYCARGGGYYYALMDVWAQGTLVTVSS
VL: DIQMTQSPSSLSASVGDRVTITCRASQTISTWLNWYQQKPGKAPKLLIYAASSLQSGVPSRFSGSGSGTDFTLTISSLQPEDFATYYCLQDSSLPLTFGQGTKVEIKR
